In patent publication US20220298235A1 (AKESO BIOPHARMA, published 2022):

T1: Human IL12 (His Tag) (human, UniProt P29459 23-219; P29460 23-328)
T1 construct: Bought His-tagged heterodimer
T1 sequence (looked up) 1: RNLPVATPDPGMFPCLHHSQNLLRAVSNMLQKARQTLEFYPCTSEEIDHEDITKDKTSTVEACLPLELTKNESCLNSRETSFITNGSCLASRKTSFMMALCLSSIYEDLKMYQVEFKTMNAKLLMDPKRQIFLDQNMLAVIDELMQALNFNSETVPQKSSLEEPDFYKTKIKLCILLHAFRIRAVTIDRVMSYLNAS
T1 sequence (looked up) 2: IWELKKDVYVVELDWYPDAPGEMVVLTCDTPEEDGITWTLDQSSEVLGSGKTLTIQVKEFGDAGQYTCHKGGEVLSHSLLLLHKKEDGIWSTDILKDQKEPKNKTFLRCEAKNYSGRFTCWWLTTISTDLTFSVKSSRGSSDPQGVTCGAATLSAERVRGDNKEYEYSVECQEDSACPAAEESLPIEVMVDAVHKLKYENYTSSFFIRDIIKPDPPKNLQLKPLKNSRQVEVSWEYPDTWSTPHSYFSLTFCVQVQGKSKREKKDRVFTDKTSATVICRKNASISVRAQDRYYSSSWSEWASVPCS

T2: human IL-23 (IL-23-His-Biotin) (human, UniProt Q9NPF7 20-189; P29460 23-328, biotin label, site not stated)
T2 construct: Akesobio lot 20161209; His-tagged and biotinylated
T2 sequence (looked up) 1: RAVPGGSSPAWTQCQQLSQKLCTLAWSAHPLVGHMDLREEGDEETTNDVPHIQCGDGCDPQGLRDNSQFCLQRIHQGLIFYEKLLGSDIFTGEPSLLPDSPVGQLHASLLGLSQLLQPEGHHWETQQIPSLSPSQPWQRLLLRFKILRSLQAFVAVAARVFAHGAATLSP
T2 sequence (looked up) 2: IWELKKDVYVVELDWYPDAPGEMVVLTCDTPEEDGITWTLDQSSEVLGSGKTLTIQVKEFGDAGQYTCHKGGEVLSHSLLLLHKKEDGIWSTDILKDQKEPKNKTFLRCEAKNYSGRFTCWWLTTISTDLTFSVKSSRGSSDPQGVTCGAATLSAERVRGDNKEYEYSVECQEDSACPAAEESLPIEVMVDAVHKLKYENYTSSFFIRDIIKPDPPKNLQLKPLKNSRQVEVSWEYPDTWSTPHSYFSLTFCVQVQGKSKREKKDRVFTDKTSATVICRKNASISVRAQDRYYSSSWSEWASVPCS


Experiments:
Human IL12 (His Tag) = molecular target: T1, Human IL12 (His Tag); assay: FACS competition, IL-12-His 20 nM on 293T-IL-12Rβ1&IL-23R cells; antibody 3.33 µg/mL
Procedure: 200 μL of 1% PBSA was added into each sample, and the mixture was centrifuged at 700×g for 5 min to discard the supernatant. According to experiment design, correspondingly diluted antibody (highest final concentration of 30 μg/mL, 3-fold dilution, 8 concentrations in total) and human IL-12 (Sino Biological, Cat. No.: CT-050-H08H-20) (final concentration of 20 nM) were mixed at a ratio of 1:1, and a blank control was set. The mixture of antibody and human IL12 was incubated on ice for 30 min and then added to the cell precipitate at 100 μL/sample. The resulting mixture was well mixed and incubated on ice for 60 min 200 μL of 1% PBSA was added, and the mixture was centrifuged at 700×g for 5 min to discard the supernatant, and then washed twice. Alexa Fluor® 488 anti-His tag antibody (Biolegend, Cat. No.: 652509) was diluted at a ratio of 1:400 and added to each tube at 100 μL. The mixture was well mixed and incubated on ice for 40 min in the absence of light. 200 μL of 1% PBSA was added, and the mixture was centrifuged at 700×g for 5 min to discard the supernatant, and then washed twice. 1% PBSA was added at 200 μL/tube, and the cells were resuspended and transferred to a flow cytometry tube for testing.

[1] = molecular target: T2, human IL-23 (IL-23-His-Biotin); assay: FACS competition, IL-23-His-Biotin 2 µg/mL on 293T-IL-12Rβ1&IL-23R cells; antibody 30 µg/mL
Procedure: (§1) 200 μL of 1% PBSA was added into each sample, and the mixture was centrifuged at 700×g for 5 min to discard the supernatant. According to experiment design, correspondingly diluted antibody (highest final concentration of 30 μg/mL, 3-fold dilution, 8 concentrations in total) and human IL-23 (IL-23-His-Biotin, Akesobio, 20161209) (final concentration of 2 μg/mL) were mixed at a ratio of 1:1, and a blank control was set. The mixture of antibody and human IL23 was incubated on ice for 30 min and then added to the cell precipitate at 100 μL/sample. The resulting mixture was well mixed and incubated on ice for 60 min. 200 μL of 1% PBSA was added, and the mixture was centrifuged at 700×g for 5 min to discard the supernatant, and then washed twice. FITC Steptavidin (Biolegend, Cat. No.: 405202) was diluted at a ratio of 1:500 and added to each tube at 100 μL. The mixture was well mixed and incubated on ice for 40 min in the absence of light. 200 μL of 1% PBSA was added, and the mixture was centrifuged at 700×g for 5 min to discard the supernatant, and then washed twice. 1% PBSA was added at 200 μL/tube, and the cells were resuspended and transferred to a flow cytometry tube for testing.

[2] = molecular target: T2, human IL-23 (IL-23-His-Biotin); assay: FACS competition, IL-23-His-Biotin 2 µg/mL on 293T-IL-12Rβ1&IL-23R cells; antibody 0.01 µg/mL
Procedure: as §1

[3] = molecular target: T2, human IL-23 (IL-23-His-Biotin); assay: FACS competition, IL-23-His-Biotin 2 µg/mL on 293T-IL-12Rβ1&IL-23R cells; antibody 0.12 µg/mL
Procedure: as §1

[4] = molecular target: T2, human IL-23 (IL-23-His-Biotin); assay: FACS competition, IL-23-His-Biotin 2 µg/mL on 293T-IL-12Rβ1&IL-23R cells; antibody 0.37 µg/mL
Procedure: as §1

[5] = molecular target: T2, human IL-23 (IL-23-His-Biotin); assay: FACS competition, IL-23-His-Biotin 2 µg/mL on 293T-IL-12Rβ1&IL-23R cells; antibody 1.11 µg/mL
Procedure: as §1

[6] = molecular target: T2, human IL-23 (IL-23-His-Biotin); assay: FACS competition, IL-23-His-Biotin 2 µg/mL on 293T-IL-12Rβ1&IL-23R cells; antibody 3.33 µg/mL
Procedure: as §1

MFI (Human IL12 (His Tag))	MFI [1]	MFI [2]	MFI [3]	MFI [4]	MFI [5]	MFI [6]	Binder
29.7 MFI	9.64 MFI	219 MFI	211 MFI	186 MFI	121 MFI	13.8 MFI	ustekinumab (antibody, V domains shown) VH: EVQLVQSGAEVKKPGESLKISCKGSGYSFTTYWLGWVRQMPGKGLDWIGIMSPVDSDIRYSPSFQGQVTMSVDKSITTAYLQWNSLKASDTAMYYCARRRPGQGYFDFWGQGTLVTVSS VL: DIQMTQSPSSLSASVGDRVTITCRASQGISSWLAWYQQKPEKAPKSLIYAASSLQSGVPSRFSGSGSGTDFTLTISSLQPEDFATYYCQQYNIYPYTFGQGTKLEIK
40.2 MFI	11.9 MFI	223 MFI	221 MFI	169 MFI	81.6 MFI	15.7 MFI	H5L10 (antibody, human IgG1, kappa, V domains shown, human IgG1 / kappa constant regions; also called humanized antibody H5L10) VH: EVQLVQSGAEVKKPGESLKISCQSSGYSFTTYWIGWVRQMPGQGLEWIGIMSPVDSDIRYNPMFRGQVTMSVDKSSSTAYLQWSSLKASDTAMYYCARRRPGQGYFDFWGQGTMVTVSS VL: EIVLTQSPATLSASPGERATISCRASQSVGSWLAWYQQKPGQAPRSLIYAASNLQSGIPARFSGSGSGTDFTLTISSLEPEDFAVYYCQQYNIYPYTFGQGTRLEIKR
146 MFI	104 MFI	222 MFI	217 MFI	206 MFI	184 MFI	153 MFI	H5L9 (antibody, human IgG1, kappa, V domains shown, human IgG1 (P01857) / kappa (P01834) constant regions; also called humanized antibody H5L9) VH: EVQLVQSGAEVKKPGESLKISCQSSGYSFTTYWIGWVRQMPGQGLEWIGIMSPVDSDIRYNPMFRGQVTMSVDKSSSTAYLQWSSLKASDTAMYYCARRRPGQGYFDFWGQGTMVTVSS VL: DIQMTQSPSSLSASVGDRVTITCKASQNVGSWLAWYQQKPGKAPKSLIYSASSRQSGVPSRFSGSGSGTDFTLTISSLQPEDFATYYCQQYDIYPFTFGQGTKLEIKR
31.8 MFI	12.3 MFI	221 MFI	211 MFI	177 MFI	88.5 MFI	15.8 MFI	H5L12 (antibody, human IgG1, kappa, V domains shown, human IgG1 / kappa constant regions; also called humanized antibody H5L12) VH: EVQLVQSGAEVKKPGESLKISCQSSGYSFTTYWIGWVRQMPGQGLEWIGIMSPVDSDIRYNPMFRGQVTMSVDKSSSTAYLQWSSLKASDTAMYYCARRRPGQGYFDFWGQGTMVTVSS VL: EIVLTQSPATLSASPGERATISCRASQSVSSWLAWYQQKPGQAPRSLIYAASNRQSGIPARFSGSGSGTDFTLTISSLEPEDFAVYYCQQYNIYPYTFGQGTRLEIKR
51.9 MFI	14.1 MFI	218 MFI	203 MFI	179 MFI	95.6 MFI	23.6 MFI	H5L14 (antibody, human IgG1, kappa, V domains shown, human IgG1 / kappa constant regions; also called humanized antibody H5L14) VH: EVQLVQSGAEVKKPGESLKISCQSSGYSFTTYWIGWVRQMPGQGLEWIGIMSPVDSDIRYNPMFRGQVTMSVDKSSSTAYLQWSSLKASDTAMYYCARRRPGQGYFDFWGQGTMVTVSS VL: EIVLTQSPATLSASPGERATISCRASQSVSSWLAWYQQKPGQAPRSLIYAASNLQSGIPARFSGSGSGTDFTLTISSLEPEDFAVYYCQQYNIYPFTFGQGTRLEIKR
42.2 MFI	12.9 MFI	219 MFI	219 MFI	179 MFI	97.6 MFI	20.2 MFI	H5L11 (antibody, human IgG1, kappa, V domains shown, human IgG1 / kappa constant regions; also called humanized antibody H5L11) VH: EVQLVQSGAEVKKPGESLKISCQSSGYSFTTYWIGWVRQMPGQGLEWIGIMSPVDSDIRYNPMFRGQVTMSVDKSSSTAYLQWSSLKASDTAMYYCARRRPGQGYFDFWGQGTMVTVSS VL: EIVLTQSPATLSASPGERATISCRASQSVSSWLAWYQQKPGQAPRSLIYSASNLQSGIPARFSGSGSGTDFTLTISSLEPEDFAVYYCQQYNIYPYTFGQGTRLEIKR
